# Reference: patent publication US20220372542A1, “DETECTION OF ANALYTES BY PROTEIN SWITCHES” (ABBOTT DIABETES CARE INC., priority 2019, published 2022)
# B1: GDH-2025: Warfarin protein switch, SEQ ID NO: 1; SEQ ID NO:11 with mutation C96F (protein)
# chain: AMYPDLKGKVVAITGAASGLGKAMAIRFGKEQAKVVINYYSNKQDPNEVKEEVIKAGGEAVVVQGDVTKEEDVKNIVQTAIKEFGTLDIMINNAGLFNPVPSHEMPLKDWDKVIGTNLTGAFLGSREAIKYFVENDIKGNVINMSSVHEVIPWPLASHYTASKGGMKLMTKTLALEYAPKGIRVNNIGPGAINTTINAEKFADPKQKADVESMIPMGYIGEPEEIAAVAAWLASKEASYVTGITLFADGGMTLYPSFQAGRG
# B2: GDH-2028: Warfarin protein switch, SEQ ID NO: 15; mutations C96F; L252V (protein)
# chain: MYPDLKGKVVAITGAASGLGKAMAIRFGKEQAKVVINYYSNKQDPNEVKEEVIKAGGEAVVVQGDVTKEEDVKNIVQTAIKEFGTLDIMINNAGLFNPVPSHEMPLKDWDKVIGTNLTGAFLGSREAIKYFVENDIKGNVINMSSVHEVIPWPLASHYTASKGGMKLMTKTLALEYAPKGIRVNNIGPGAINTTINAEKFADPKQKADVESMIPMGYIGEPEEIAAVAAWLASKEASYVTGITLFADGGMTVYPSFQAGRG
# Key:
# [1] = Beaker calibration: glucose sensitivity of protein switch sensors; format: biochemical; details: Sensor active area 0.33 mm^2 with PVP membrane; 100 mM PBS, room temperature, 1-30 mM glucose
# [2] = Beaker stability (long-term stability) of protein switch sensors; format: physicochemical; details: Sensor in 30 mM glucose in 100 mM PBS at 33° C., after 1 day
# Procedure: Beaker Stability. The beaker stability (long-term stability) of the sensor GDH-105 and the sensors comprising the protein switches GDH-2004, GDH-2007, GDH-2008, GDH-2009, GDH-2010, GDH-2011, GDH-2015, GDH-2018, GDH-2019, GDH-2005, GDH-2013, GDH-2016, and GDH-2024 described above were evaluated in 30 mM glucose in 100 mM PBS at 33° C. as shown in FIG. 8. After 4 days, each of the signals experienced a sensor drop (decreased stability for detecting glucose) at different rates, as shown in Table 10.
# Beaker Stability. The beaker stability (long-term stability) of the GDH-105, GDH-2025, GDH-2026, GDH-2027, and GDH-2028 sensors were evaluated in 30 mM glucose in 100 mM PBS at 33° C. as shown in FIG. 11. After 1 day, each of the signals experience sensor drop (decreased stability for detecting glucose) of different rates, as provided in Table 12.
# [3] = Warfarin inhibition of protein switch sensors in test beaker; format: biochemical; details: 100 mM PBS 33° C., 10 mM NAD+; for effect of increasing warfarin concentrations on sensor signal: 5 mM glucose, 10, 30, 80, 180, 300 uM warfarin, FIGS. 12A, 12B, 13; for sensor response to glucose addition: glucose 5 mM
# Procedure: Warfarin Sensor. Experimental GDH-105 and GDH-2016 glucose-responsive active areas were prepared using a single-layer active area system. The GDH was obtained from Codexis, Redwood City, Calif. The active area was coated onto a carbon working electrode in a single layer composition (Table 8). Following deposition of the active area, the active area was cured for three days at RT.
# Experimental procedure. Testing of the GDH-105 and GDH-2016 sensors was conducted by immersing the electrode in a 100 mM PBS buffer solution at 33° C. NAD^+ (5 mM) supplied to a test beaker containing PBS buffer followed by the addition of glucose (1 mM).
# Evolved Warfarin sensors. GDH-105, GDH-2016, GDH-2025, GDH-2026, GDH-2027, and GDH-2028 glucose-responsive active areas were prepared using a single-layer active area system. The GDH was obtained from Codexis, Redwood City, Calif. The active area (0.33 mm^2) was coated onto a carbon working electrode in a single layer composition (Table 8). Following deposition of the active area, the active area was cured for three days at room temperature.
# Experimental procedure. Testing of the GDH-105, GDH-2016, GDH-2025, GDH-2026, GDH-2027, and GDH-2028 sensors was conducted by immersing the electrode in a 100 mM PBS buffer solution at 33° C. NAD^+(10 mM) supplied to a test beaker containing PBS buffer followed by the addition of glucose (5 mM).
Molecule,Sensitivity [1] [nA/mM],Signal drop (1 day) [2] [%],effect of increasing warfarin concentrations on sensor signal [3],sensor response to glucose addition [3]
B1,0.32,−58,inhibition,showed response to glucose addition
B2,0.09,−68,inhibition,showed response to glucose addition
